From patent US20250304714A1 (Regeneron, published 2025)
Changes are numbered by the printed parent chain.

How the values were obtained:
human CD3 [1] = target: T1, human CD3 (human, UniProt P07766 23-207; P04234 22-171; P09693 23-182); assay: flow cytometry (FACS) on Jurkat cells
T1 construct: also called CD3 on human CD3-expressing Jurkat cells; CD3 on human T cells; copies: 2 + 1 + 1
Method: (§1) Briefly, 2×10⁵ cells/well of human CD3-expressing Jurkat, cynomolgus T, or human PSMA-specific expressing cells were incubated with a serial dilution of bispecific antibodies for 30 min at 4° C. After incubation, cells were washed and a goat F(ab′)₂ anti-human Fcγ PE labeled secondary (Jackson Immunolabs) was added to the cells for an additional 30 min. Next, cells were washed, re-suspended in cold PBS+1% BSA and analyzed via flow cytometry on a BD FACS Canto II.
(§2) For FACS analysis, cells were gated by forward scatter height vs. forward scatter area for single events selection, followed by side and forward scatters. The EC₅₀ for cell binding titration was determined using Prism software. Values were calculated using 4-parameter non-linear regression analysis.

human CD3 [2] = target: T1, human CD3; assay: cell-based or functional assay
[3] = target: T2, human prostate-specific membrane antigen (PSMA) (human, UniProt Q04609 1-750); assay: cell-based or functional assay
T2 sequence (Q04609 whole entry): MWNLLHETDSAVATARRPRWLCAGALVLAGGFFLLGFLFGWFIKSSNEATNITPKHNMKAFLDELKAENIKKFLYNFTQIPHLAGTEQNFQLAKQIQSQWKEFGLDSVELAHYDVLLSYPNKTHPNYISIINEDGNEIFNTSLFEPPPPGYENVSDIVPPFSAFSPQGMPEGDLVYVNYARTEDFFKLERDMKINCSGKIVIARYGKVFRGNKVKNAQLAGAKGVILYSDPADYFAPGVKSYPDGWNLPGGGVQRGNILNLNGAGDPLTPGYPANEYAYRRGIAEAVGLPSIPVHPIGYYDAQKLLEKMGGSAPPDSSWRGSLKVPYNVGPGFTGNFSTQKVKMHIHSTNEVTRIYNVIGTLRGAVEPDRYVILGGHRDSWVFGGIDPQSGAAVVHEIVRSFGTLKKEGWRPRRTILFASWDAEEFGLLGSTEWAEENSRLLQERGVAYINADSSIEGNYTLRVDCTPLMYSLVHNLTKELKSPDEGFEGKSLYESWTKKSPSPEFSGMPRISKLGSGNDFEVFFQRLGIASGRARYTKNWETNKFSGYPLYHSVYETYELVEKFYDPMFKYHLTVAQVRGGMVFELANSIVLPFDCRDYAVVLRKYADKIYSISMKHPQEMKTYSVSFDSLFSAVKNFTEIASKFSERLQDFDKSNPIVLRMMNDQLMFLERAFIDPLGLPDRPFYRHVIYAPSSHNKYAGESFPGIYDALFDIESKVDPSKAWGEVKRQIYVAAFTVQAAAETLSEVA

[4] = target: T2, human prostate-specific membrane …; assay: flow cytometry (FACS) on B16F10.9/PSMA cells
Method: as §1, §2

[5] = target: T3, soluble heterodimeric hCD3 mFc protein (human); assay: SPR at 37° C., antigen-capture format, MASS-1
T3 construct: Heterodimer of two different CD3 chains fused to mFc; the names of the subunits seem to have been lost in the printed text ('hCD3 mFc'); also called soluble heterodimeric CD3 protein; Soluble Human CD3
T3 sequence (P07766 23-126, chain 1 of 2): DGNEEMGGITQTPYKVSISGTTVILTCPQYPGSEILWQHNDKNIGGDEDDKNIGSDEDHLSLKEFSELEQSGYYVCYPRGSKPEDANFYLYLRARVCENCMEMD
T3 sequence (P04234 22-105, chain 2 of 2, further chain): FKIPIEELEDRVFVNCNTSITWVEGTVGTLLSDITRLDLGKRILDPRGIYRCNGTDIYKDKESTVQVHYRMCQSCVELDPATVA
Method: Measurements were conducted on a Sierra Sensors MASS-1 instrument.
In the antigen-capture format, the MASS-1 high-density amine sensor surface was derivatized with a goat anti-mouse IgG2a polyclonal antibody (Southern Biotech). Soluble heterodimeric CD3 protein was captured and the respective antibodies were injected over the captured antigen.
Kinetic association (kₐ) and dissociation (kd) rate constants were determined by processing and fitting the data to a 1:1 binding model using MASS-1 AnalyserR2 curve fitting software. Binding dissociation equilibrium constants (KD) and dissociative half-lives (t_{1/2}) were calculated from the kinetic rate constants as: KD (M)=kd/kₐ; and t_{1/2} (min) (In2/(60*kd).

cynomolgus CD3 = target: T4, cynomolgus CD3 (cynomolgus); assay: flow cytometry (FACS) on cynomolgus T cells
T4 construct: whole, on cells; also called CD3 on cynomolgus T cells; Cyno T-cells
T4 sequence (Q95LI5 22-198, chain 1 of 3): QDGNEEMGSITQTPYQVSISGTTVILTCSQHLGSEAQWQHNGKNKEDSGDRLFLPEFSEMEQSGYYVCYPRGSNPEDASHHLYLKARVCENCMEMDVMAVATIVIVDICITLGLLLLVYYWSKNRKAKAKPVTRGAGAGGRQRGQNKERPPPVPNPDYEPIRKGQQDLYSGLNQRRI
T4 sequence (Q95LI8 22-171, chain 2 of 3, further chain): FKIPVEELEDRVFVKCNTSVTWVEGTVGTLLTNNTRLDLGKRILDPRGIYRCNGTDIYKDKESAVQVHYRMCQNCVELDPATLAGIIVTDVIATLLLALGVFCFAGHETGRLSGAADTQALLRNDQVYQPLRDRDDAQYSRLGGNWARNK
T4 sequence (Q95LI7 23-181, chain 3 of 3, further chain): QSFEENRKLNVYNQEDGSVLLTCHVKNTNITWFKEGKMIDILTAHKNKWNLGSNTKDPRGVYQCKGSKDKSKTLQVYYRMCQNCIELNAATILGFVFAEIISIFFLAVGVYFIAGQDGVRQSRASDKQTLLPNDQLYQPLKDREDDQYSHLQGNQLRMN
Method: as §1, §2

T1 sequence (P07766 23-207 limits assumed, chain 1 of 3): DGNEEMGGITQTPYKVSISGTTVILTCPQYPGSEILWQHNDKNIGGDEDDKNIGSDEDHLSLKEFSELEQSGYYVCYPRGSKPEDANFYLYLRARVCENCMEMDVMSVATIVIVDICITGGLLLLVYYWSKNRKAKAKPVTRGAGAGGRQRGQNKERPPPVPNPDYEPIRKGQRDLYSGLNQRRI
T1 sequence (P04234 22-171 limits assumed, chain 2 of 3): as the sequence (Q95LI8 22-171, chain 2 of 3, further chain) above, with V5I, K15N, V20I, T32S, N33D, N34I, A64T, N74S, L83V, R141H counted along it
T1 sequence (P09693 23-182 limits assumed, chain 3 of 3): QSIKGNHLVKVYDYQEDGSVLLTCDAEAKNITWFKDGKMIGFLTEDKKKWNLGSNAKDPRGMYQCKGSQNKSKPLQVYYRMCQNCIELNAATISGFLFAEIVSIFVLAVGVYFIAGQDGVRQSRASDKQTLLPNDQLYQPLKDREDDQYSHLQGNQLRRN

B1: PSMA/CD3-001 (bispecific antibody, V domains shown)
VH 1: QVQLVESGGGVVQPGRSLRLSCAASGFTFSSYGMHWVRQAPGKGLEWVAVISYAGNNKYYADSVKGRFTVSRDNSKKTLYLQMNSLRSEDTAVYYCAKDSYYDFLTDPDVLDIWGQGTMVTVSS
VH 2: EVQLVESGGGLVQPGRSLRLSCAASGFTFDDYSMHWVRQAPGKGLEWVSGISWNSGSIGYADSVKGRFTISRDNAKNSLYLQMNSLRAEDTALYYCAKDGSGYGKFYYYGMDVWGQGTTVTVSS
VL: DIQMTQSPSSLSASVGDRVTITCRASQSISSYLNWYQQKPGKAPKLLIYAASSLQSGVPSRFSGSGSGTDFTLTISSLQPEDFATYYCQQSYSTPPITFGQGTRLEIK
notes: also called anti-PSMA x anti-CD3 bispecific antibody with anti-CD3 arm CD3-VH-G5
- EC50 (human CD3 [1]): ~1000 nM
- T cell activation EC50 [M] (percent CD69+ of CD2+ T cells) (human CD3 [2]): 1.34e-11 M
- 22RV1 Cell depletion EC50 [3]: 6.31 pM
- C4-2 Cell depletion EC50 [3]: 21.5 pM
- TrampC2.PSMA Cell depletion EC50 [3]: 11.5 pM
- EC50 [4]: 1.31 nM

B2: PSMA/CD3-002 (bispecific antibody, V domains shown)
VH 1: B1 VH 1
VH 2: B1 VH 2 with D99Y
VL: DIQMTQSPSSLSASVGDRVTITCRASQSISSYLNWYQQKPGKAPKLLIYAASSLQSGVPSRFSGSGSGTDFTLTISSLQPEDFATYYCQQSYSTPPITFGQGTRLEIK
notes: also called REGN4336; anti-PSMA x anti-CD3 bispecific antibody with anti-CD3 arm CD3-VH-G20
- Kd [5]: 334 nM
- T1/2 [5]: 2 min
- koff [5]: 0.00577 s⁻¹
- kon [5]: 17300 M⁻¹ s⁻¹
- EC50 (cynomolgus CD3): 6.14 µM
- EC50 (human CD3 [1]): 210 nM
- T cell activation EC50 [M] (percent CD69+ of CD2+ T cells) (human CD3 [2]): 6.11e-12 M
- 22RV1 Cell depletion EC50 [3]: 8.32 pM
- C4-2 Cell depletion EC50 [3]: 13.9 pM
- EC50 [4]: 2.09 nM
